Measured values published in the Immune Epitope Database (IEDB).

Assays:
HLA-B*73:01 = experiment: IEDB peptide-MHC binding, purified MHC/competitive/fluorescence; filed as Kd, often an IC50 or EC50 that approximates it; ≥ and ≤ were set here for values at or beyond the usual limits of such assays; settings: source organism: Brucella abortus S19
HLA-B*46:01 = experiment: IEDB peptide-MHC binding, purified MHC/direct/fluorescence; filed as Kd, often an IC50 or EC50 that approximates it; ≥ and ≤ were set here for values at or beyond the usual limits of such assays
HLA-B*15:02 = experiment: as above; settings: source organism: dengue virus type 3
HLA-A*30:02 = experiment: IEDB peptide-MHC binding, purified MHC/competitive/radioactivity; filed as Kd, often an IC50 or EC50 that approximates it; ≥ and ≤ were set here for values at or beyond the usual limits of such assays; settings: source organism: Dengue virus 3 Martinique/1243/1999
HLA-B*18:01 = experiment: IEDB peptide-MHC binding, purified MHC/direct/fluorescence; filed as Kd, often an IC50 or EC50 that approximates it; ≥ and ≤ were set here for values at or beyond the usual limits of such assays; settings: source organism: Vibrio cholerae
HLA-A*01:01 = experiment: as above
HLA-B*27:05 = experiment: as above
HLA-B*15:01 = experiment: as above
HLA-B*07:02 = experiment: as above
HLA-B*48:01 = experiment: as above; settings: source organism: Vibrio cholerae
HLA-B*58:01 = experiment: as above
HLA-B*15:17 = experiment: as above; settings: source organism: Vibrio cholerae
HLA-B*40:01 = experiment: as above
HLA-A*03:01 = experiment: as above
HLA-A*02:01 = experiment: as above
HLA-A*69:01 = experiment: as above
HLA-B*57:01 = experiment: as above; settings: source organism: Vibrio cholerae
HLA-A*31:01 = experiment: as above
HLA-B*08:02 = experiment: as above; settings: source organism: Vibrio cholerae V52
HLA-A*11:01 = experiment: as above
HLA-B*51:01 = experiment: as above; settings: source organism: Vibrio cholerae
HLA-B*15:09 = experiment: IEDB peptide-MHC binding, purified MHC/competitive/fluorescence; filed as Kd, often an IC50 or EC50 that approximates it; ≥ and ≤ were set here for values at or beyond the usual limits of such assays; settings: source organism: Vibrio cholerae 2740-80
HLA-B*39:01 = experiment: as above; settings: source organism: Vibrio cholerae 2740-80
HLA-B*08:01 = experiment: IEDB peptide-MHC binding, purified MHC/direct/fluorescence; filed as Kd, often an IC50 or EC50 that approximates it; ≥ and ≤ were set here for values at or beyond the usual limits of such assays; settings: source organism: Corynebacterium glutamicum
HLA-A*26:01 = experiment: as above; settings: source organism: Corynebacterium glutamicum
HLA-A*02:12 = experiment: IEDB peptide-MHC binding, purified MHC/competitive/fluorescence; filed as Kd, often an IC50 or EC50 that approximates it; ≥ and ≤ were set here for values at or beyond the usual limits of such assays; settings: source organism: Corynebacterium glutamicum ATCC 13032
HLA-A*02:03 = experiment: as above; settings: source organism: Corynebacterium glutamicum ATCC 13032
HLA-A*02:50 = experiment: as above; settings: source organism: Corynebacterium glutamicum ATCC 13032
HLA-A*02:11 = experiment: as above; settings: source organism: Corynebacterium glutamicum ATCC 13032
HLA-A*02:06 = experiment: as above; settings: source organism: Corynebacterium glutamicum ATCC 13032
[1] = source organism: Vibrio cholerae
[2] = source organism: Corynebacterium glutamicum

NEAWGKKPV
Kd (HLA-B*73:01): ≥ 20 µM

KQIANELNY
Kd (HLA-B*46:01; source organism: dengue virus type 3): ≥ 20 µM
Kd (HLA-B*15:02): ≥ 20 µM
Kd (HLA-A*30:02): ≥ 76.9 µM

FPLTQRDVL
Kd (HLA-B*18:01): 1.9 µM
Kd (HLA-A*01:01; [1]): ≥ 20 µM
Kd (HLA-B*27:05; [1]): ≥ 20 µM
Kd (HLA-B*15:01; [1]): ≥ 20 µM
Kd (HLA-B*07:02; [1]): 0.046 µM
Kd (HLA-B*46:01; [1]): ≥ 20 µM
Kd (HLA-B*48:01): ≥ 20 µM
Kd (HLA-B*58:01; [1]): ≥ 20 µM
Kd (HLA-B*15:17): ≥ 20 µM
Kd (HLA-B*40:01; [1]): ≥ 20 µM
Kd (HLA-A*03:01; [1]): ≥ 20 µM
Kd (HLA-A*02:01; [1]): ≥ 20 µM
Kd (HLA-A*69:01; [1]): 0.719 µM
Kd (HLA-B*57:01): ≥ 20 µM
Kd (HLA-A*31:01; [1]): ≥ 20 µM
Kd (HLA-B*08:02): ≥ 20 µM
Kd (HLA-A*11:01; [1]): ≥ 20 µM
Kd (HLA-B*51:01): 2.82 µM
Kd (HLA-B*15:09): 0.358 µM
Kd (HLA-B*39:01): 0.0144 µM

FLPGQYMNI
Kd (HLA-A*01:01; [2]): ≥ 20 µM
Kd (HLA-B*27:05; [2]): ≥ 20 µM
Kd (HLA-B*15:01; [2]): ≥ 20 µM
Kd (HLA-B*07:02; [2]): ≥ 20 µM
Kd (HLA-B*58:01; [2]): ≥ 20 µM
Kd (HLA-B*40:01; [2]): ≥ 20 µM
Kd (HLA-A*03:01; [2]): ≥ 20 µM
Kd (HLA-A*02:01; [2]): 0.0728 µM
Kd (HLA-A*69:01; [2]): 0.404 µM
Kd (HLA-B*08:01): ≥ 20 µM
Kd (HLA-A*26:01): ≥ 20 µM
Kd (HLA-A*31:01; [2]): ≥ 20 µM
Kd (HLA-A*11:01; [2]): ≥ 20 µM
Kd (HLA-A*02:12): ≤ 0.0001 µM
Kd (HLA-A*02:03): ≤ 0.0001 µM
Kd (HLA-A*02:50): ≤ 0.0001 µM
Kd (HLA-A*02:11): ≤ 0.0001 µM
Kd (HLA-A*02:06): ≤ 0.0001 µM
